According to patent US20240200044, “EVOLUTION OF TALENS” (President and Fellows of Harvard College, published 2024):

Molecular target: T1, CBX8-directed TALE-omega (synthetic construct, UniProt Q56830 SEQ:41-724)
T1 chain: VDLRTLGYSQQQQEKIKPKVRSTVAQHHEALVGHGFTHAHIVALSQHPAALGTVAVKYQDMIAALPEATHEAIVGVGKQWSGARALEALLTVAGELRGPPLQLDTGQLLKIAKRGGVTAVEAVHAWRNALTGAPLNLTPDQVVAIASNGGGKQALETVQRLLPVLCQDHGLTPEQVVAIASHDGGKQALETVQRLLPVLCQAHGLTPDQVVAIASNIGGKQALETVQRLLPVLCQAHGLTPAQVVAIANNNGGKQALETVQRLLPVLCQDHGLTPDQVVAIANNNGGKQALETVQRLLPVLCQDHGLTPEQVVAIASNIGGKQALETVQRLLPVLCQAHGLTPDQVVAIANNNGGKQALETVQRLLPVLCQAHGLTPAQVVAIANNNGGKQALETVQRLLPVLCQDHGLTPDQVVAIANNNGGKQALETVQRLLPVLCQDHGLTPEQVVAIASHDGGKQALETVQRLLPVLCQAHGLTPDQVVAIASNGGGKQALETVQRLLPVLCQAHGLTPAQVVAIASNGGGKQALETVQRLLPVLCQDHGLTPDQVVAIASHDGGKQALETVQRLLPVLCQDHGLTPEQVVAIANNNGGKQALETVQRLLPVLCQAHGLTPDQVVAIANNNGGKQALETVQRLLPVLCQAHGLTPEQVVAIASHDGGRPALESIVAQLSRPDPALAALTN
Experiment: one_hybrid; luciferase induction, 18 aa C-terminus plus GGGGS linker
Details: tags: N-terminal FLAG-NLS, C-terminal RNAP omega
Description: This system was used to continuously evolve TALE proteins with novel properties. A series of C-terminal fusions between a previously reported TALE array targeting CBX8 (right half-site TALE)¹⁸, and the RNAP w subunit were tested. […] The sequence specificity of the system was verified using an off-target sequence in the luciferase assay, and performed on- and off-target colorimetric plaque assays using TALE-ω SP and host cells harboring the AP containing the target CBX8 sequence. Similar to the findings with zinc fingers, both luciferase expression and phage propagation were dependent on the presence of the cognate TALE binding site (FIG. 10B). Finally, PACE was performed for 24 h on the cognate AP to optimize the SP backbone.
Luciferase assay. pOH plasmids were transformed by electroporation into S1030 cells, and grown overnight at 37° C. on LB-agar plates supplemented with 50 μg/mL carbenicillin. Single colonies were used to inoculate cultures which were allowed to grow for ˜12 h at 37° C. in DRM supplemented with 50 μg/mL carbenicillin in a shaker. Cultures were diluted to an OD₆₀₀ of ˜0.3 and allowed to grow for an additional 2 h at 37° C. […] 200 μL aliquots of each sample were then transferred to 96-well opaque plates and luminescence and OD₆₀₀ readings were taken using a Tecan Infinite Pro instrument. Luminescence data were normalized to cell density by dividing by the OD₆₀₀ value.

B1: CBX8 5'T site (dsDNA)
DNA 1: TTCAGGAGGGCTTCGGC
DNA 2: GCCGAAGCCCTCCTGAA
**Q.** Which binding signal does the source give for B1 here?
**A.** > 10 fold
